B1: XBP1 110-118 (KLLLENQLL) (peptide)
peptide: KLLLENQLL
notes: Native peptide of non-spliced XBP1, synthetic; also called XBP1 #5 peptide
B2: XBP1 189-197 (ILAVLTLQI) (peptide)
peptide: ILAVLTLQI
notes: Native peptide of non-spliced XBP1, synthetic; also called XBP1 #3 peptide
B3: heteroclitic spliced XBP1 367-375 (YLFPQLISV) (peptide)
peptide: YLFPQLISV
notes: Heteroclitic variant of the spliced XBP1 367-375 peptide, synthetic; also called SP XBP1 #3M; XBP1 SP 3M
B4: CD138 260-268 (GLVGLIFAV) (peptide)
peptide: GLVGLIFAV
notes: Native peptide of CD138, synthetic; also called CD138 #2p; CD138 #2 peptide
B5: SP XBP1 367-375 (ELFPQLISV) (peptide)
peptide: ELFPQLISV
notes: Native peptide of spliced XBP1, synthetic; also called SP XBP1 #3 peptide; SP XBP1 #3p
B6: SP XBP1 196-204 (GILDNLDPV) (peptide)
peptide: GILDNLDPV
notes: also called SP XBP1 #1 peptide; SP XBP1 #1p
B7: XBP1 184-192 (NISPWILAV) (peptide)
peptide: NISPWILAV
notes: Native peptide of non-spliced XBP1, synthetic; also called XBP1 #2 peptide; XBP1 #2p

In the first test the target is T1, HLA-A2 molecules on the surface of human T2 cells (human).
T1 construct: MHC class I molecule that the peptides load onto; also called HLA-A2.1; HLA-A*0201
Put plainly: T2 peptide-binding assay; HLA-A2 up-regulation on T2 cells, flow cytometry.
Consider LLREKTHGL (also called XBP1 #1 peptide) [XBP1 117-125 (LLREKTHGL)], for which the binding result is given as “binds”.

In the case of B1, the binding result is reported as “binds”.

Consider B2, for which the binding result was “binds”.

The target of a further test is T1, HLA-A2 molecules on the surface of …. Put plainly: peptide stability assay on T2 cells after Brefeldin A, flow cytometry with FITC anti-HLA-A2 mAb.
Consider B3, for which the binding result is “binds”.

The next test shares this target. Kind of test: T2 peptide-binding assay; HLA-A2 up-regulation on T2 cells, 50 ug/mL peptide plus b2m, flow cytometry with PE anti-HLA-A2 mAb.
As to LLVPLLLSL (Native peptide of CS1, synthetic) [CS1-P3: CS1 232-240 (LLVPLLLSL)], the binding result is “binds”.

As for TLIYILWQL (Native peptide of CS1, synthetic) [CS1-P4: CS1 9-17 (TLIYILWQL)], the binding result was “binds”.

With LLLSLFVLGL [CS1-P1: CS1 236-245 (LLLSLFVLGL)], the binding result is reported as “binds”.

As to SLFVLGLFL (Native peptide of CS1, synthetic) [CS1-P2: CS1 239-247 (SLFVLGLFL)], the binding result is “binds”.

The target is the same in another test. Put plainly: T2 peptide-binding assay; HLA-A2 up-regulation on T2 cells, 50 ug/ml peptide plus b2m, flow cytometry with FITC anti-HLA-A2 mAb.
With B4, the “MFI (HLA-A2 mean fluorescence intensity)” value came to 690 MFI.

Turning to B5, the “MFI (HLA-A2 mean fluorescence intensity)” value was 785 MFI.

Consider B6, for which the “MFI (HLA-A2 mean fluorescence intensity)” value came out at 762 MFI.

On to B7, for which the “MFI (HLA-A2 mean fluorescence intensity)” value is 720 MFI.

(Values after US20110159021A1 (Dana-Farber, published 2011).)
